Series [1] deals with the molecule itself. Briefly: fibril formation seen by negative staining TEM.
Series [2] concerns the molecule itself. Nature of the series: circular dichroism of fibrils collected by centrifugation.
The series “pelleting assay” deals with the molecule itself. Briefly: pelleting assay.
The series “SEC” deals with the molecule itself. Briefly: SEC. In general terms: In gel filtration, larger molecules generally elute earlier.
Series [3] deals with the molecule itself. Briefly: pelleting by centrifugation + negative staining TEM.

These results are taken from article doi:10.1101/2022.03.21.484600 (bioRxiv, 2022).

A word on the stoichiometry N: it is a count of units in the complex or per binding partner.

B1: Cdc19 amyloid core peptide, E380Q E392Q (peptide)
peptide: TSTTQTVAASAVAAVFQ
Consider B1, for which the binding result in series [1] is reported as “binds”.

B2: Cdc19 amyloid core peptide, E380A E392A (peptide)
peptide: TSTTATVAASAVAAVFA
Regarding B2, the binding result in series [2] is “binds”.

B3: Purified full-length PKM2 H391R (enzyme)
chain: not shown
For B3, the binding result in the series “pelleting assay” is “binds”.

B4: Purified full-length Cdc19, wild type (enzyme)
chain: MSRLERLTSLNVVAGSDLRRTSIIGTIGPKTNNPETLVALRKAGLNIVRMNFSHGSYEYHKSVIDNARKSEELYPGRPLAIALDTKGPEIRTGTTTNDVDYPIPPNHEMIFTTDDKYAKACDDKIMYVDYKNITKVISAGRIIYVDDGVLSFQVLEVVDDKTLKVKALNAGKICSHKGVNLPGTDVDLPALSEKDKEDLRFGVKNGVHMVFASFIRTANDVLTIREVLGEQGKDVKIIVKIENQQGVNNFDEILKVTDGVMVARGDLGIEIPAPEVLAVQKKLIAKSNLAGKPVICATQMLESMTYNPRPTRAEVSDVGNAILDGADCVMLSGETAKGNYPINAVTTMAETAVIAEQAIAYLPNYDDMRNCTPKPTSTTETVAASAVAAVFEQKAKAIIVLSTSGTTPRLVSKYRPNCPIILVTRCPRAARFSHLYRGVFPFVFEKEPVSDWTDDVEARINFGIEKAKEFGILKKGDTYVSIQGFKAGAGHSNTLQVSTV
On to B4, for which, in the series “SEC”, the “stoichiometry N” value stood at 4.

B5: Cdc19 amyloid core peptide, wild type (amino acids 376-392) (peptide)
peptide: TSTTETVAASAVAAVFE
For B5, the binding result in series [2] was “binds”.

B6: PKM2 amyloid core centre peptide, wild type (amino acids 382-402) (peptide)
peptide: AREAEAAIYHLQLFEELRRLA
As to B6, the binding result in series [3] was “binds”.

B7: PKM2 amyloid core centre peptide H391R (amino acids 382-402) (peptide)
peptide: AREAEAAIYRLQLFEELRRLA
Regarding B7, the binding result in series [3] was “binds”.
